Data published in patent US20220340635A1, “FUSION PROTEIN FOR TREATMENT OF METABOLIC DISEASE” (ZHEJIANG DOER BIOLOGICS CORPORATION, priority 2019, published 2022).
Where two headings read alike, the source gives them in different places.

Legend:
[1] = test system: FGF21 signaling pathway; assay: FGF21 cell-based bioactivity assay, luciferase reporter in HEK293T cells transfected with GAL4DBD-ELK1 and KLB (β-klotho); settings: Table 4, 6 h
Text: The puromycin resistance gene pac was amplified by PCR and cloned into pcDNA3.1(+) to replace the original G418 resistance gene. The GAL4DBD-ELK1, IRES. and KLB (β-klotho) genes were amplified by PCR and cloned into the pcDNA-Puro plasmid in sequence to construct the plasmid pcDNA-GAL4DBD-ELK1-IRES-KLB-Pero for cell transfection and screening. The constructed recombinant plasmid and the pFR-Luc plasmid (Agilent) were extracted by Omega E.Z.N.A.® Endo-Free Plasmid Midi Kit for future use. The cell transfection process was as follows: HEK293T cells were plated 3×10^5 cells per well in a 6-well plate and cultured overnight.
After washing the cells twice with Opti-MEM medium, 2 ml Opti-MEM medium was added. Cell transfection reagent was prepared according to the following proportion: Lipofectamine 2000 (6 μl ): pFR-Luc (4.6 μg): pcDNA-GAL4DBD-ELK1-IRES-KLB-Pura (1 μg). […]
The cells were digested with pancreatin to prepare a cell suspension (1×10^5 cells/ml, DMEM+5% FBS+1 μg/ml puromycin) after reaching confluence in the dish, followed by plating in a 96-well plate (100 μl per well), and culturing overnight. Samples of gradient concentrations were added and cultured for 6 h before fluorescence detection by the Luciferase Reporter Assay Kit (Lucifersae reporter kit, Ray Biotech, Cat:68-LuciR-S200).

[2] = mouse, in vivo; cited from earlier work
[3] = monkey, in vivo; cited from earlier work

B1: Natural FGF21: natural fibroblast growth factor 21, SEQ ID NO.87 (protein)
chain: HPIPDSSPLLQFGGQVRQRYLYTDDAQQTEAHLEIREDGTVGGAADQSPESLLQLKALKPGVIQILGVKTSRFLCQRPDGALYGSLHFDPEACSFRELLLEDGYNVYQSEAHGLPLHLPGNKSPHRDPAPRGPARFLPLPGLPPALPEPPGILAPQPPDVGSSDPLSMVGPSQGRSPSYAS
modifications: Amino acid sequence of natural FGF21
Question: For B1, which EC50 [1] is on record?
Answer: The EC50 was 120 pM.

Question: What about the Serum half-life [2] of the same molecule?
Answer: Its Serum half-life is 0.5 h.

Question: And the Serum half-life [3]?
Answer: Its Serum half-life is 2 h.
